{"source": "patent US9127040B2", "about": "“Regulation of sodium channels by PLUNC proteins” (The University of North Carolina at Chapel Hill, priority 2011, dated 2015)", "molecules": {"B1": {"name": "SPLUNC1: human SPLUNC1 (SEQ ID NO:1), 256 amino acid secreted PLUNC family protein; rSPLUNC1 is the purified V5/6His-tagged recombinant form (protein, listed as Homo sapiens)", "chain": "MFQTGGLIVFYGLLAQTMAQFGGLPVPLDQTLPLNVNPALPLSPTGLAGSLTNALSNGLLSGGLLGILENLPLLDILKPGGGTSGGLLGGLLGKVTSVIPGLNNIIDIKVTDPQLLELGLVQSPDGHRLYVTIPLGIKLQVNTPLVGASLLRLAVKLDITAEILAVRDKQERIHLVLGDCTHSPGSLQISLLDGLGPLPIQGLLDSLTGILNKVLPELVQGNVCPLVNEVLRGLDITLVHDIVNMLIHGLQFVIKV", "modifications": "V5/6His tag in recombinant form", "notes": "rSPLUNC1 is the purified V5/6His-tagged recombinant form"}}, "target": "T1, α, β and γENaC subunits (Rattus norvegicus, UniProt P37089+P37090+P37091)", "T1 construct": "expressed in transfected cells; host or cells: Xenopus oocytes (cRNA injection; with or without V5-SPLUNC1 and CAP2)", "T1 sequence (P37089 1-698)": "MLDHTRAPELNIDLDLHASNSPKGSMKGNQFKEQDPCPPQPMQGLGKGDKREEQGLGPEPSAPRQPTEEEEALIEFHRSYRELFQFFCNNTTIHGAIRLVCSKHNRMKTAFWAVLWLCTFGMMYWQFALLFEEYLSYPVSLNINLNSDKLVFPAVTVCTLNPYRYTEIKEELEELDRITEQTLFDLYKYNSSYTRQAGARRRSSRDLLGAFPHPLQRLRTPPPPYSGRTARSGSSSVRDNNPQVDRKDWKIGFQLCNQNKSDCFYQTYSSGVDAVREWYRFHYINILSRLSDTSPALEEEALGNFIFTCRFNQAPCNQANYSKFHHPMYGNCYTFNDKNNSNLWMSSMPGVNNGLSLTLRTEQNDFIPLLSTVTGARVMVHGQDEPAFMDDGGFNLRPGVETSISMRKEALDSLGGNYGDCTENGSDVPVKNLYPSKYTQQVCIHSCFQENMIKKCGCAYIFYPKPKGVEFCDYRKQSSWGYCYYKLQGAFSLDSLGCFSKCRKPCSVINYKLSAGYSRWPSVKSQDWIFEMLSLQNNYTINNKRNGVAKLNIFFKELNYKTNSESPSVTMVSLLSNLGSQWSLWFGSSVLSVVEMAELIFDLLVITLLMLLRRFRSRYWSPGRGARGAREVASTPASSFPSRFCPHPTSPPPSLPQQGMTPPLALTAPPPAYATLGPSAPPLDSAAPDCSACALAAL", "T1 sequence (P37090 1-638)": "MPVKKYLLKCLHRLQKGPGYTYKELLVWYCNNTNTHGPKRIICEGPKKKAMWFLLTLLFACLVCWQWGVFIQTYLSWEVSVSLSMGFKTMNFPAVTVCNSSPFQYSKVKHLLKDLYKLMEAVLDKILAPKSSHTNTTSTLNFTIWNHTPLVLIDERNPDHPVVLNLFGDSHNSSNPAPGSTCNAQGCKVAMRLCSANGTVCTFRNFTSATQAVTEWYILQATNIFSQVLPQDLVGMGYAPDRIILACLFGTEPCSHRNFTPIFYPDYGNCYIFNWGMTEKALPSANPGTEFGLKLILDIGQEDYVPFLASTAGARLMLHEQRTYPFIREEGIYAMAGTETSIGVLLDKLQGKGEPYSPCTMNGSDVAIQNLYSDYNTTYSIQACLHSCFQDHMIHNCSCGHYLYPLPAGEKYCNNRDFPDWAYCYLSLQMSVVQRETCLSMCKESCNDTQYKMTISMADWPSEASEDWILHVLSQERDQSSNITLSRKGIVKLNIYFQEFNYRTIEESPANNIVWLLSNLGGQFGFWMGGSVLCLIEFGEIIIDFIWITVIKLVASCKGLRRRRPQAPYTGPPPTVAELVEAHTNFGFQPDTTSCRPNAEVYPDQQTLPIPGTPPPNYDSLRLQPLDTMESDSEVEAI", "T1 sequence (P37091 1-650)": "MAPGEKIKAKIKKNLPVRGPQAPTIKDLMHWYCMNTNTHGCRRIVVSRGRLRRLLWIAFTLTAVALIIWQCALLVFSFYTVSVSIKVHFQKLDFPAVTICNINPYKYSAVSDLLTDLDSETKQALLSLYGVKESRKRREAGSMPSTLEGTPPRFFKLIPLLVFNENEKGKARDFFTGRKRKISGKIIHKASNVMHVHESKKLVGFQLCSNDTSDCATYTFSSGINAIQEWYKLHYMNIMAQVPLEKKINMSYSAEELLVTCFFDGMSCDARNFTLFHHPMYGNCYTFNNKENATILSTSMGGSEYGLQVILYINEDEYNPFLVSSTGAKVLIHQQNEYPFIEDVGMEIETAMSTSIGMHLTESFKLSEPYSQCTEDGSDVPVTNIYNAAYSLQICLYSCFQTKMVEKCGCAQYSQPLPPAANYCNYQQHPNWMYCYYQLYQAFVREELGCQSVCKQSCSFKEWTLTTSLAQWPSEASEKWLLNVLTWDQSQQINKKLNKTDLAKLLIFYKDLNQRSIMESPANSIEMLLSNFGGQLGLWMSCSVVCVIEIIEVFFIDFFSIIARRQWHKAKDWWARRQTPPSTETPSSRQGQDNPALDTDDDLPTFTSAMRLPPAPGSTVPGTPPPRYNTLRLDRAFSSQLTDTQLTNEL", "experiment": "Co-immunoprecipitation of V5-tagged SPLUNC1 with HA-tagged ENaC subunits in Xenopus oocytes", "assay_type": "binding", "conditions": "V5-tagged SPLUNC1, anti-HA immunoprecipitation", "protocol": "Xenopus oocytes were injected with either HA-N-Terminus or V5-C-Terminus (HA-NT/V5-CT) tagged subunits in combination with wild type (WT) untagged rat αβγENaC subunits (0.3 ng cRNA each) with or without V5-tagged SPLUNC1 and CAP2 (1 ng cRNA each). After 24 h, 40 eggs per experimental condition were lysed with buffer containing (in mM): 20 Tris, 50 NaCl, 50 NaF, 10 β-glycerophosphate, 5 Na4P2O7 pyrophosphate, 1 EDTA, pH 7.5 and protease inhibitors (complete, Roche), aprotinin (Sigma). Cell lysates were prepared by passing the eggs through a 27G1/2 needle twice and by centrifugation at 3,600 rpm for 10 minutes at 4° C. Supernatants were transferred to new tubes and samples were spun at 14,000 rpm for 20 minutes at 4° C. Supernatants were discarded and pellets were solubilized in (mM) 50 Tris, 100 NaCl, 0.1% Triton X-100, 0.1% NP-40, 20 NaF, 10 Na4P2O7, 10 EDTA+protease inhibitor cocktail (Sigma), pH 7.5. Total inputs were taken from whole cell samples representing 4% of total protein. Solubilized proteins were incubated with 50 μl of protein A and 5 μl of anti-HA antibody (Covance) overnight while tumbling at 4° C. Samples were washed three times with (mM) 150 NaCl 50 Tris pH 7.5 buffer. Laemmli buffer was added and samples were loaded on a 15% gradient Tris-glycine gel after incubation for 10 minutes at 96° C. […]", "data": [{"molecule": "B1", "values": [{"measurement": "binding to ENaC subunits (co-immunoprecipitation)", "result": "bound to all three ENaC subunits"}]}]}
